These results are taken from IntAct's records for PubMed 17948060.

B1: G1/S-specific cyclin-D1 (Mus musculus), P25322 (parent)
chain: MEHQLLCCEVETIRRAYPDTNLLNDRVLRAMLKTEETCAPSVSYFKCVQKEIVPSMRKIVATWMLEVCEEQKCEEEVFPLAMNYLDRFLSLEPLKKSRLQLLGATCMFVASKMKETIPLTAEKLCIYTDNSIRPEELLQMELLLVNKLKWNLAAMTPHDFIEHFLSKMPEADENKQTIRKHAQTFVALCATDVKFISNPPSMVAAGSVVAAMQGLNLGSPNNFLSCYRTTHFLSRVIKCDPDCLRACQEQIEALLESSLRQAQQNVDPKATEEEGEVEEEAGLACTPTDVRDVDI
partner: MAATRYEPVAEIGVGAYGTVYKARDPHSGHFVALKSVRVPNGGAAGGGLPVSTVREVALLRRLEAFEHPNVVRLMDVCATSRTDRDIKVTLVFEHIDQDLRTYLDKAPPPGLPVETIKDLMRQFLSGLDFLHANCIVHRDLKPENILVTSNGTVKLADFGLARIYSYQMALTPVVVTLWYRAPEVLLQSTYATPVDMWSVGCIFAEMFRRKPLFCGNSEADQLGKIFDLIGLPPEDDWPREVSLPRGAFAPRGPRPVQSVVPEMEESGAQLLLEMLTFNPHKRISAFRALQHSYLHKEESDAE

In the assay the parent is B1. Conditions: with cdk4_mouse Cdk4, P30285.
In the case of MEHQLLCCEVETIRRAYPDTNLLNDRVLRAMLKTEETCAPSVSYFKCVQKEIVPSMRKIVATWMLEVCEEQKCEEEVFPLAMNYLDRFLSLEPLKKSRLQLLGATCMFVASKMAETIPLTAEKLCIYTDNSIRPEELLQMELLLVNKLKWNLAAMTPHDFIEHFLSKMPEADENKQTIRKHAQTFVALCATDVKFISNPPSMVAAGSVVAAMQGLNLGSPNNFLSCYRTTHFLSRVIKCDPDCLRACQEQIEALLESSLRQAQQNVDPKATEEEGEVEEEAGLACTPTDVRDVDI [K114A], the “effect of a mutation on the interaction” value is on record as “disrupting interaction”.
